In paper PMC2230540 (The Journal of General Physiology, 1999):

Target: the molecule itself
Assay: cross-linking

B1: EriC, Escherichia coli ClC-type Cl- channel homologue, product of the yadQ gene (natural protein, UniProt P37019 1-473, looked up)
chain: MKTDTPSLETPQAARLRRRQLIRQLLERDKTPLAILFMAAVVGTLVGLAAVAFDKGVAWLQNQRMGALVHTADNYPLLLTVAFLCSAVLAMFGYFLVRKYAPEAGGSGIPEIEGALEDQRPVRWWRVLPVKFFGGLGTLGGGMVLGREGPTVQIGGNIGRMVLDIFRLKGDEARHTLLATGAAAGLAAAFNAPLAGILFIIEEMRPQFRYTLISIKAVFIGVIMSTIMYRIFNHEVALIDVGKLSDAPLNTLWLYLILGIIFGIFGPIFNKWVLGMQDLLHRVHGGNITKWVLMGGAIGGLCGLLGFVAPATSGGGFNLIPIATAGNFSMGMLVFIFVARVITTLLCFSSGAPGGIFAPMLALGTVLGTAFGMVAVELFPQYHLEAGTFAIAGMGALLAASIRAPLTGIILVLEMTDNYQLILPMIITGLGATLLAQFTGGKPLYSAILARTLAKQEAEQLARSKAASASENT
stoichiometry N: 2
